Test results taken from patent US20080118529.

Experiments:
[1] = biological target: human Aβ(1-40) Dutch type
[2] = biological target: T1, human fibrin α-chain (148-160) amyloid fragment with Lys157Ala mutation (FP13)
T1 chain: KRLEVDIDIAIRS

B1: human factor XII from plasma (Calbiochem, #233490) (protein)
chain: IPPWEAPKEHKYKAEEHTVVLTVTGEPCHFPFQYHRQLYHKCTHKGRPGPQPWCATTPNFDQDQRWGYCLEPKKVKDHCSKHSPCQKGGTCVNMPSGPHCLCPQHLTGNHCQKEKCFEPQLLRFFHKNEIWYRTEQAAVARCQCKGPDAHCQRLASQACRTNPCLHGGRCLEVEGHRLCHCPVGYTGAFCDVDTKASCYDGRGLSYRGLARTTLSGAPCQPWASEATYRNVTAEQARNWGLGGHAFCRNPDNDIRPWCFVLNRDRLSWEYCDLAQCQTPTQAAPPTPVSPRLHVPLMPAQPAPPKPQPTTRTPPQSQTPGALPAKREQPPSLTRNGPLSCGQRLRKSLSSMTRVVGGLVALRGAHPYIAALYWGHSFCAGSLIAPCWVLTAAHCLQDRPAPEDLTVVLGQERRNHSCEPCQTLAVRSYRLHEAFSPVSYQHDLALLRLQEDADGSCALLSPYVQPVCLPSGAARPSETTLCQVAGWGHQFEGAEEYASFLQEAQVPFLSLERCSAPDVHGSSILPGMLCAGFLEGGTDACQGDSGGPLVCEDQAAERRLTLQGIISWGSGCGDRNKPGVYTDVAYYLAWIREHTVS
activation of factor XII, detected by the conversion of Chromozym-PK upon formation of kallikrein from prekallikrein [1]: Like kaolin, amyloid-like peptide aggregates of FP13 and Aβ stimulate the activation of factor XII | auto-activation of purified factor XII, substrate S-2222 [1]: All three amyloid-like aggregates are able to induce factor XII auto-activation ... the potency of the Aβ(1-40) E22Q is somewhat lower | activation of factor XII, detected by the conversion of Chromozym-PK upon formation of kallikrein from prekallikrein [2]: Like kaolin, amyloid-like peptide aggregates of FP13 and Aβ stimulate the activation of factor XII
